Experimental data as given in patent US11208452B2.

Each substance was assayed against human insulin receptor IR-A (solubilised holoreceptor) (human) (UniProt P06213) (assay: competition SPA: displacement of [125I-A14Y]-human insulin from solubilised human IR-A, relative to human insulin standard).

Receptor binding (hIRA) SPA, sup % relative to HI (% relative to HI)	Substance
3.13	A14E, A21G(GAPQ)50, B25H, desB30 human insulin (from UniProt P01308) (ligand)
3.1	A14E, A21G(GEHP)50, B25H, desB30 human insulin (from UniProt P01308) (ligand)
3.3	A14E, A21G(GEPH)50, B25H, desB30 human insulin (from UniProt P01308) (ligand)
3.15	A14E, A21G(GQAP)50, B25H, desB30 human insulin (from UniProt P01308) (ligand)
2.41	A14E, A21G(GQAP)75, B25H, desB30 human insulin (from UniProt P01308) (ligand)
2.1	A14E, A21G(GQAP)150, B25H, desB30 human insulin (from UniProt P01308) (ligand)
3	A14E, A21G(GQEP)50, B25H, desB30 human insulin (from UniProt P01308) (ligand)
6.99	A21G(GAQ)67, desB30 human insulin (from UniProt P01308) (ligand)
4.66	A21G(GAQP)50, desB30 human insulin (from UniProt P01308) (ligand)
4.85	A21G(GEH)67, desB30 human insulin (from UniProt P01308) (ligand)
8.24	A21G(GEPQ)50, desB30 human insulin (from UniProt P01308) (ligand)
8.48	A21G(GEQ)67, desB30 human insulin (from UniProt P01308) (ligand)
7.77	A21G(GEQH)50, desB30 human insulin (from UniProt P01308) (ligand)
9.04	A21G(GEQP)50, desB30 human insulin (from UniProt P01308) (ligand)
4.67	A21G(GHEP)50, desB30 human insulin (from UniProt P01308) (ligand)
6.7	A21G(GHEQ)50, desB30 human insulin (from UniProt P01308) (ligand)
3.47	A21G(GHPE)50, desB30 human insulin (from UniProt P01308) (ligand)
9.41	A21G(GHQE)50, desB30 human insulin (from UniProt P01308) (ligand)
6.5	A21G(GPAQ)50, desB30 human insulin (from UniProt P01308) (ligand)
10.1	A21G(GPEH)50, desB30 human insulin (from UniProt P01308) (ligand)

Receptor binding (hIRA) SPA, sup % relative to HI (% relative to HI)	Substance
8.18	A21G(GPEQ)50, desB30 human insulin (from UniProt P01308) (ligand)
7.85	A21G(GPHE)50, desB30 human insulin (from UniProt P01308) (ligand)
5.05	A21G(GPQA)50, desB30 human insulin (from UniProt P01308) (ligand)
6.53	A21G(GPQE)50, desB30 human insulin (from UniProt P01308) (ligand)
4.11	A21G(GQA)67, desB30 human insulin (from UniProt P01308) (ligand)
4.55	A21G(GQAP)31, desB30 human insulin (from UniProt P01308) (ligand)
5.33	A21G(GQAP)37, desB30 human insulin (from UniProt P01308) (ligand)
6.34	A21G(GQAP)44, desB30 human insulin (from UniProt P01308) (ligand)
4.56	A21G(GQAP)50, desB30 human insulin (from UniProt P01308) (ligand)
3.49	A21G(GQAP)56, desB30 human insulin (from UniProt P01308) (ligand)
4.45	A21G(GQAP)62, desB30 human insulin (from UniProt P01308) (ligand)
4.2	A21G(GQAP)69, desB30 human insulin (from UniProt P01308) (ligand)
4.19	A21G(GQAP)75, desB30 human insulin (from UniProt P01308) (ligand)
3.19	A21G(GQAP)100, desB30 human insulin (from UniProt P01308) (ligand)
2.65	A21G(GQAP)125, desB30 human insulin (from UniProt P01308) (ligand)
2.87	A21G(GQAP)150, desB30 human insulin (from UniProt P01308) (ligand)
6.6	A21G(GQE)67, desB30 human insulin (from UniProt P01308) (ligand)
5.99	A21G(GQEH)50, desB30 human insulin (from UniProt P01308) (ligand)
4.06	A21G(GQEPGQHP)25, desB30 human insulin (from UniProt P01308) (ligand)
7.83	A21G(GQHE)50, desB30 human insulin (from UniProt P01308) (ligand)

Receptor binding (hIRA) SPA, sup % relative to HI (% relative to HI)	Substance
4.26	A21G(GQPA)50, desB30 human insulin (from UniProt P01308) (ligand)
4.09	A21G(GQPE)50, desB30 human insulin (from UniProt P01308) (ligand)
9.98	A21G, A22A, A23P, A24Q(GAPQ)49, desB30 human insulin (from UniProt P01308) (ligand)
5.71	A21G, A22A, A23Q, A24P(GAQP)37, desB30 human insulin (from UniProt P01308) (ligand)
4.38	A21G, A22A, A23Q, A24P(GAQP)49, desB30 human insulin (from UniProt P01308) (ligand)
3.89	A21G, A22A, A23Q, A24P(GAQP)62, desB30 human insulin (from UniProt P01308) (ligand)
5.7	A21G, A22P, A23A, A24Q(GPAQ)49, desB30 human insulin (from UniProt P01308) (ligand)
5.26	A21G, A22P, A23Q, A24A(GPQA)49, desB30 human insulin (from UniProt P01308) (ligand)
4.92	A21G, A22Q, A23A, A24P(GQAP)49, desB30 human insulin (from UniProt P01308) (ligand)
0.08	A21G, A22Q, A23P(GQP)66, desB30 human insulin (from UniProt P01308) (ligand)
5.53	A21G, A22Q, A23P, A24A(GQPA)49, desB30 human insulin (from UniProt P01308) (ligand)
8.38	A21G, B1F(GQAP)50, desB30 human insulin (from UniProt P01308) (ligand)
4.98	A21G, B1F(GQAP)100, desB30 human insulin (from UniProt P01308) (ligand)
7.52	A21Q(GAPQ)50, desB30 human insulin (from UniProt P01308) (ligand)
5.41	A21Q(GEHP)50, desB30 human insulin (from UniProt P01308) (ligand)
5.09	A21Q(GEPH)50, desB30 human insulin (from UniProt P01308) (ligand)
6.55	A21Q(GQAP)50, desB30 human insulin (from UniProt P01308) (ligand)
8.54	A21Q(GQEP)50, desB30 human insulin (from UniProt P01308) (ligand)
